Reference: US20180155451A1 (published 2018)

T1: FcγRIIb extracellular domain with C-terminal His tag (human, UniProt P31994 43-217)
T1 construct: extracellular domain; also called 2b; FcgRIIb; not shown: His tag at the C terminus
T1 sequence (looked up): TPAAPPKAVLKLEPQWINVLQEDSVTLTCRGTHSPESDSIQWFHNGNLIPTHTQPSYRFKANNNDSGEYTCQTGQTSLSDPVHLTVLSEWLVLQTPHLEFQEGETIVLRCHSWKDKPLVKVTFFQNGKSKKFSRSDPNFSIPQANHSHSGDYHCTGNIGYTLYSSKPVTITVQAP


What was measured:
[1] = biological target: T1, FcγRIIb extracellular domain with …; test: SPR (Biacore), relative binding, GpH7-A5/GpH7-B3/GpL16-k0 = 100
Method: (§1) Analysis of interaction between objective antibody and the FcγR was carried out using Biacore T100 (GE Healthcare). HBS-EP+ (GE Healthcare) was used as the running buffer, and the measurement temperature was set to 25° C. Chips produced by immobilizing the antigen peptide by the amine coupling method to a Series S Sencor Chip CM5 (GE Healthcare), or alternatively, chips produced by allowing preliminarily biotinylated antigen peptides to interact with and immobilize onto a Series S Sensor Chip SA (certified) (GE Healthcare) were used. Antibodies of interest were captured onto an antigen peptide-immobilized chip, and allowed to interact to each FcγR diluted with running buffer. To regenerate and repeatedly use the chip, the antibodies captured on the chip were washed off by reacting 10 mM glycine-HCl, pH 1.5.
(§2) The FcγR-binding activity of each antibody was assessed primarily using as an indicator the FcγR-binding activity and dissociation constant for FcγR.

[2] = biological target: T2, FcγRIIIa extracellular domain with C-terminal His tag (human, UniProt P08637 17-208); test: as above
T2 construct: extracellular domain; also called 3a; FcgRIIIa; not shown: His tag at the C terminus
T2 sequence (P08637 17-208): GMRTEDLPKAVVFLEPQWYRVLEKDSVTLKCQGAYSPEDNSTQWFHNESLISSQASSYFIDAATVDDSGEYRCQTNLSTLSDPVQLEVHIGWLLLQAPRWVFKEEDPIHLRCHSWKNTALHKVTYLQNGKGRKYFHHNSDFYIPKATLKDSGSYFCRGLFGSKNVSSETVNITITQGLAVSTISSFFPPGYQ
Method: as §1, §2

He/Con_2b [1] | He/Con_3a [2] | Binder
103 % of control | 96 % of control | GpH7-A5/GpH7-B3 variant T335_04F/GpL16-k0 (antibody, human IgG1, kappa, He Ab: mutation in the GpH7-B3 H chain only; also called He Ab) heavy 1: not shown heavy 2: not shown light: DIVMTQSPLSLPVTPGEPASISCQASESLVHSNRNTYLHWYLQKPGQSPQLLIYKVSNRFSGVPDRFSGSGSGTDFTLKISRVEAEDVGVYYCSQNTHVPPTFGQGTKVEIERTVAAPSVFIFPPSDEQLKSGTASVVCLLNNFYPREAKVQWKVDNALQSGNSQESVTEQDSKDSTYSLSSTLTLSKADYEKHKVYACEVTHQGLSSPVTKSFNRGEC
57.6 % of control | 34.7 % of control | GpH7-A5/GpH7-B3 variant V266_04F/GpL16-k0 (antibody, human IgG1, kappa, He Ab: mutation in the GpH7-B3 H chain only; also called He Ab) heavy 1: not shown heavy 2: not shown light: DIVMTQSPLSLPVTPGEPASISCQASESLVHSNRNTYLHWYLQKPGQSPQLLIYKVSNRFSGVPDRFSGSGSGTDFTLKISRVEAEDVGVYYCSQNTHVPPTFGQGTKVEIERTVAAPSVFIFPPSDEQLKSGTASVVCLLNNFYPREAKVQWKVDNALQSGNSQESVTEQDSKDSTYSLSSTLTLSKADYEKHKVYACEVTHQGLSSPVTKSFNRGEC
236 % of control | 118 % of control | GpH7-A5/GpH7-B3 variant V266_08L/GpL16-k0 (antibody, human IgG1, kappa, He Ab: mutation in the GpH7-B3 H chain only; also called He Ab) heavy 1: not shown heavy 2: not shown light: DIVMTQSPLSLPVTPGEPASISCQASESLVHSNRNTYLHWYLQKPGQSPQLLIYKVSNRFSGVPDRFSGSGSGTDFTLKISRVEAEDVGVYYCSQNTHVPPTFGQGTKVEIERTVAAPSVFIFPPSDEQLKSGTASVVCLLNNFYPREAKVQWKVDNALQSGNSQESVTEQDSKDSTYSLSSTLTLSKADYEKHKVYACEVTHQGLSSPVTKSFNRGEC
10.1 % of control | 2.7 % of control | GpH7-A5/GpH7-B3 variant V266_09D/GpL16-k0 (antibody, human IgG1, kappa, He Ab: mutation in the GpH7-B3 H chain only; also called He Ab) heavy 1: not shown heavy 2: not shown light: DIVMTQSPLSLPVTPGEPASISCQASESLVHSNRNTYLHWYLQKPGQSPQLLIYKVSNRFSGVPDRFSGSGSGTDFTLKISRVEAEDVGVYYCSQNTHVPPTFGQGTKVEIERTVAAPSVFIFPPSDEQLKSGTASVVCLLNNFYPREAKVQWKVDNALQSGNSQESVTEQDSKDSTYSLSSTLTLSKADYEKHKVYACEVTHQGLSSPVTKSFNRGEC
15.2 % of control | 4.1 % of control | GpH7-A5/GpH7-B3 variant V266_10E/GpL16-k0 (antibody, human IgG1, kappa, He Ab: mutation in the GpH7-B3 H chain only; also called He Ab) heavy 1: not shown heavy 2: not shown light: DIVMTQSPLSLPVTPGEPASISCQASESLVHSNRNTYLHWYLQKPGQSPQLLIYKVSNRFSGVPDRFSGSGSGTDFTLKISRVEAEDVGVYYCSQNTHVPPTFGQGTKVEIERTVAAPSVFIFPPSDEQLKSGTASVVCLLNNFYPREAKVQWKVDNALQSGNSQESVTEQDSKDSTYSLSSTLTLSKADYEKHKVYACEVTHQGLSSPVTKSFNRGEC

Continued, binder first:

Binder | He/Con_2b [1] | He/Con_3a [2]
GpH7-A5/GpH7-B3 variant S267_05P/GpL16-k0 (antibody, human IgG1, kappa, He Ab: mutation in the GpH7-B3 H chain only; also called He Ab) heavy 1: not shown heavy 2: not shown light: DIVMTQSPLSLPVTPGEPASISCQASESLVHSNRNTYLHWYLQKPGQSPQLLIYKVSNRFSGVPDRFSGSGSGTDFTLKISRVEAEDVGVYYCSQNTHVPPTFGQGTKVEIERTVAAPSVFIFPPSDEQLKSGTASVVCLLNNFYPREAKVQWKVDNALQSGNSQESVTEQDSKDSTYSLSSTLTLSKADYEKHKVYACEVTHQGLSSPVTKSFNRGEC | 31.5 % of control | 15.7 % of control
GpH7-A5/GpH7-B3 variant S267_07I/GpL16-k0 (antibody, human IgG1, kappa, He Ab: mutation in the GpH7-B3 H chain only; also called He Ab) heavy 1: not shown heavy 2: not shown light: DIVMTQSPLSLPVTPGEPASISCQASESLVHSNRNTYLHWYLQKPGQSPQLLIYKVSNRFSGVPDRFSGSGSGTDFTLKISRVEAEDVGVYYCSQNTHVPPTFGQGTKVEIERTVAAPSVFIFPPSDEQLKSGTASVVCLLNNFYPREAKVQWKVDNALQSGNSQESVTEQDSKDSTYSLSSTLTLSKADYEKHKVYACEVTHQGLSSPVTKSFNRGEC | 192 % of control | 25.2 % of control
GpH7-A5/GpH7-B3 variant S337_07I/GpL16-k0 (antibody, human IgG1, kappa, He Ab: mutation in the GpH7-B3 H chain only; also called He Ab) heavy 1: not shown heavy 2: not shown light: DIVMTQSPLSLPVTPGEPASISCQASESLVHSNRNTYLHWYLQKPGQSPQLLIYKVSNRFSGVPDRFSGSGSGTDFTLKISRVEAEDVGVYYCSQNTHVPPTFGQGTKVEIERTVAAPSVFIFPPSDEQLKSGTASVVCLLNNFYPREAKVQWKVDNALQSGNSQESVTEQDSKDSTYSLSSTLTLSKADYEKHKVYACEVTHQGLSSPVTKSFNRGEC | 104 % of control | 94.8 % of control
GpH7-A5/GpH7-B3 variant S337_08L/GpL16-k0 (antibody, human IgG1, kappa, He Ab: mutation in the GpH7-B3 H chain only; also called He Ab) heavy 1: not shown heavy 2: not shown light: DIVMTQSPLSLPVTPGEPASISCQASESLVHSNRNTYLHWYLQKPGQSPQLLIYKVSNRFSGVPDRFSGSGSGTDFTLKISRVEAEDVGVYYCSQNTHVPPTFGQGTKVEIERTVAAPSVFIFPPSDEQLKSGTASVVCLLNNFYPREAKVQWKVDNALQSGNSQESVTEQDSKDSTYSLSSTLTLSKADYEKHKVYACEVTHQGLSSPVTKSFNRGEC | 100 % of control | 96.9 % of control
